Values belong to the binder of their own block, whether it stands above or below them.
Tests used:
[1] = target: His-Fascin (human, UniProt Q16658 1-493); assay: pull-down
[2] = target: GST-Fascin (human, UniProt Q16658 1-493); assay: pull-down

B1: GST-fused C-terminal BROMO (659-832) domain of PCAF (domain or fragment)
chain: FSVIIKKQKEIIKKLIERKQAQIRKVYPGLSCFKDGVRQIPIESIPGIRETGWKPSGKEKSKEPRDPDQLYSTLKSILQQVKSHQSAWPFMEPVKRTEAPGYYEVIRFPMDLKTMSERLKNRYYVSKKLFMADLQRVFTNCKEYNPPESEYYKCANILEKFFFSKIKEAGLIDK
binding result [1]: binds

B2: GST-PCAF (enzyme)
chain: MSEAGGAGPGGCGAGAGAGAGPGALPPQPAALPPAPPQGSPCAAAAGGSGACGPATAVAAAGTAEGPGGGGSARIAVKKAQLRSAPRAKKLEKLGVYSACKAEESCKCNGWKNPNPSPTPPRADLQQIIVSLTESCRSCSHALAAHVSHLENVSEEEMNRLLGIVLDVEYLFTCVHKEEDADTKQVYFYLFKLLRKSILQRGKPVVEGSLEKKPPFEKPSIEQGVNNFVQYKFSHLPAKERQTIVELAKMFLNRINYWHLEAPSQRRLRSPNDDISGYKENYTRWLCYCNVPQFCDSLPRYETTQVFGRTLLRSVFTVMRRQLLEQARQEKDKLPLEKRTLILTHFPKFLSMLEEEVYSQNSPIWDQDFLSASSRTSQLGIQTVINPPPVAGTISYNSTSSSLEQPNAGSSSPACKASSGLEANPGEKRKMTDSHVLEEAKKPRVMGDIPMELINEVMSTITDPAAMLGPETNFLSAHSARDEAARLEERRGVIEFHVVGNSLNQKPNKKILMWLVGLQNVFSHQLPRMPKEYITRLVFDPKHKTLALIKDGRVIGGICFRMFPSQGFTEIVFCAVTSNEQVKGYGTHLMNHLKEYHIKHDILNFLTYADEYAIGYFKKQGFSKEIKIPKTKYVGYIKDYEGATLMGCELNPRIPYTEFSVIIKKQKEIIKKLIERKQAQIRKVYPGLSCFKDGVRQIPIESIPGIRETGWKPSGKEKSKEPRDPDQLYSTLKSILQQVKSHQSAWPFMEPVKRTEAPGYYEVIRFPMDLKTMSERLKNRYYVSKKLFMADLQRVFTNCKEYNPPESEYYKCANILEKFFFSKIKEAGLIDK
binding result [1]: binds

Second part, the binder after the results:

binding result [2]: binds
B3: His-PCAF (enzyme)
chain: B2 chain

binding result [1]: binds
B4: GST-fused N-terminal (1-492) domain of PCAF (domain or fragment)
chain: MSEAGGAGPGGCGAGAGAGAGPGALPPQPAALPPAPPQGSPCAAAAGGSGACGPATAVAAAGTAEGPGGGGSARIAVKKAQLRSAPRAKKLEKLGVYSACKAEESCKCNGWKNPNPSPTPPRADLQQIIVSLTESCRSCSHALAAHVSHLENVSEEEMNRLLGIVLDVEYLFTCVHKEEDADTKQVYFYLFKLLRKSILQRGKPVVEGSLEKKPPFEKPSIEQGVNNFVQYKFSHLPAKERQTIVELAKMFLNRINYWHLEAPSQRRLRSPNDDISGYKENYTRWLCYCNVPQFCDSLPRYETTQVFGRTLLRSVFTVMRRQLLEQARQEKDKLPLEKRTLILTHFPKFLSMLEEEVYSQNSPIWDQDFLSASSRTSQLGIQTVINPPPVAGTISYNSTSSSLEQPNAGSSSPACKASSGLEANPGEKRKMTDSHVLEEAKKPRVMGDIPMELINEVMSTITDPAAMLGPETNFLSAHSARDEAARLEERRG
